Test results: US8846873B2, “Antibodies directed to GPNMB and uses thereof” (Celldex Therapeutics, Inc., priority 2004, dated 2014)
“Also recorded” adds a separate entry of the source. Structures can show the parent of a compound that is named as a salt. One block for each molecule: values may come before it. Where a SMILES comes first, the peptide text is derived from it. [ ]: non-standard residue; d: D form. The star is where a group is joined. Dolaproine = CO[C@@H]([C@@H]1CCCN1)[C@@H](C)C(=O)O; Dil = CC[C@H](C)[C@H](NC)[C@@H](CC(=O)O)OC; X1 = C[C@@H](N*)[C@@H](O)c1ccccc1; NMeV = CN[C@H](C(=O)O)C(C)C

How the values were obtained:
[1] = system: SK-MEL-2 melanoma xenografts; assay: Human SK-MEL-2 melanoma xenograft in athymic mice; assay type: in vivo
Experimental: (§1) Test Animals: Five- to 6-week old athymic mice (CD-1 nu/nu females), used for human tumor xenografts, were obtained from Harlan Laboratories (Indianapolis, Ind.). Animals were housed in specific pathogen-free conditions, according to the guidelines of the Association for Assessment and Accreditation of Laboratory Animal Care International (AAALAC International). Test animals were provided pelleted food and water ad libitum and kept in a room with conditioned ventilation (HVAC), temperature (22°±2° C.), relative humidity (55%±15%), and photoperiod (12 hr). All studies were carried out with approved institutional animal care and use protocols.
(§2) Human Melanoma Xenograft Models. The tumor inhibitory activity of the CR011-MMAE immunoconjugate was measured in an anti-tumor xenograft model using athymic mice, according to published methods (see Geran et al., Cancer Chemother. Rep. 3:1-104 (1972)). […] When tumors became established (10-20 days), the animals were pair-matched into groups (n=6 mice/group), and treatment was administered by intravenous injection (tail vein).
(§3) The SK-MEL-2 human melanoma (ATCC #HTB-68) was derived from a metastatic site (skin of thigh) of a person with malignant melanoma, and the SK-MEL-5 human melanoma (ATCC #HTB-70) was derived from a metastatic site (axillary lymph node) of a person with malignant melanoma (see Fogh et al., J. Natl. Cancer Inst. 59: 221-226 (1977)). Both cell lines were obtained from the American Type Culture Collection.
(§4) The effects of treatment were monitored by repetitive tumor measurements across 2 diameters with Vernier calipers; tumor size (in mg) was calculated using a standard formula, (W^2×L)/2, assuming a specific gravity of 1.0. Tumor size and body weights were assessed twice weekly. Mice were examined daily, however, and moribund animals were humanely euthanized if clinical indications of excessive pain or distress were noted (i.e., prostration, hunched posture, paralysis/paresis, distended abdomen, ulcerations, abscesses, seizures, and/or hemorrhages). Animals with tumors exceeding 2,000 mg were removed from the study and euthanized humanely.
No apparent or statistically significant anti-tumor effects were observed. […] In preliminary studies, tumor regression was complete and was not followed by regrowth of the tumor despite lengthy observation periods (up to 200 days).

[2] = system: SK-Mel-2 cells; assay: Flow cytometry of CR011 binding to cell surface CG56972/GPNMB; set-up: species or system human; details: SK-MEL-2
Experimental: (§5) Flow Cytometry: Quantitative analysis of GPNMB expression on the cell surface of cell lines was determined by flow cytometry. […] Cells were fixed in 1% paraformaldehyde/PBS and examined on a Becton Dickinson FACSCalibur flow cytometer. Data analysis was performed with Becton Dickinson Cell Quest software version 3.3 and the geometric mean fluorescence intensity ratio (GMR) was determined for each cell type.
as §5, with “CG56972” for “GPNMB”, “the” for “the cell”, “cytometry (FACS).” for “cytometry.”

[3] = system: SK-Mel-2 cells; assay: ADCC assay with human PBMC (DELFIA EuTDA cytotoxicity); assay type: cell-based; details: human PBMC 30 to 100 fold; 2, 5, 10 μg/200 μl
Experimental: We next examined whether the CR0111gG1 mAb could induce ADCC in SK-MEL-2 cells in culture in the presence of human PBMC. Human PBMC were isolated from whole blood using a Ficoll-Plaque. Briefly, in a 50 mL tube, 15 mL of PBS was added to 20 mL of whole blood which was underlayed with 10 mL Ficoll-Plaque and the tube was centrifuged at 2000 RPM. Mononuclear cells were collected from the interface and washed 3 times with PBS. The ADCC assay was carried out in a 96 well plate using a fluorescence assay for cytolysis from Perkin-Elmer (DELFIA EuTDA Cytotoxic assay). The procedure is based on loading target cells with a fluorescence enhancing ligand (BATDA, bis (acetoxymethyl) terpyridine—dicarboxylate). The hydrophic ligand penetrates the membrane quickly. Within the cell the esterbonds are hydrolyzed to form a hydrophilic ligand (TDA, terpyridine—dicarboxylic acid) which can no longer pass through the membrane. After cytolysis the ligand is released and introduced to the Europium solution. The europium and the ligand form a highly fluorescent and stable chelate (EuTDA). Fluorescence intensity are recorded using excitation and emission wavelengths as λex=340 nm and λem=613 nm, respectively.

[4] = target: T1, GPNMB (Homo sapiens, UniProt Q14956); assay: Binning of antibodies (Luminex competitive binding)
T1 construct: made in house; host or cells: HEK 293
T1 sequence (Q14956 23-492): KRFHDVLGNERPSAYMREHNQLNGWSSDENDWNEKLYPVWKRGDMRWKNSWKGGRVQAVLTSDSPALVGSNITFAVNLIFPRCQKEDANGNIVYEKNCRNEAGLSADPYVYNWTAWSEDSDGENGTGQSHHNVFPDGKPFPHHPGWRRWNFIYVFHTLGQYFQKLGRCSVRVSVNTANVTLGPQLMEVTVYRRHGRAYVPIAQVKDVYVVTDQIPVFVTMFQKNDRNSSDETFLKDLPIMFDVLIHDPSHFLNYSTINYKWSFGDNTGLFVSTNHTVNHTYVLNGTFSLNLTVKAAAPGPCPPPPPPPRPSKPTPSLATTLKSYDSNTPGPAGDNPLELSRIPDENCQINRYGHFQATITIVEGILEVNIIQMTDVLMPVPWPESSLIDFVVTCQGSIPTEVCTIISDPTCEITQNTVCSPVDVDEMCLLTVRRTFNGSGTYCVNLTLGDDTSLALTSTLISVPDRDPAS
Experimental: Certain antibodies, described herein were binned in accordance with the protocol described in U.S. Patent Application Publication No. 20030157730. MxhIgG conjugated beads are prepared for coupling to primary antibody. The volume of supernatant needed is calculated using the following formula: (n+10)×50 μL (where n=total number of samples on plate). Where the concentration is known, 0.5 μg/mL is used. Bead stock is gently vortexed, then diluted in supernatant to a concentration of 2500 of each bead per well or 0.5×10^5/mL and incubated on a shaker in the dark at RT overnight, or 2 hours if at a known concentration of […]. Following aspiration, 50 μL of each bead is added to each well of filter plate, then washed once by adding 100 μL/well wash buffer and aspirating. Antigen and controls are added to filter plate 50 μL/well then covered and allowed to incubate in the dark for 1 hour on shaker. Following a wash step, a secondary unknown antibody is added at 50 μL/well using the same dilution (or concentration if known) as is used for the primary antibody. The plates are then incubated in the dark for 2 hours at RT on shaker followed by a wash step. Next, 50 μL/well biotinylated mxhIgG diluted 1:500 is added and allowed to incubate in the dark for 1 hour on shaker at RT. Following a wash step, 50 μL/well Streptavidin-PE is added at 1:1000 and allowed to incubate in the dark for 15 minutes on shaker at RT.

[5] = system: UACC-62; assay: Anti GPNMB antibody mediated indirect cell killing (saporin secondary antibody-toxin conjugate, colony count); assay type: cell-based, human; details: 5-FU at 600 uM, positive reagent control
Experimental: UACC-62, a GPNMB antigen expressing cell line, and TK10, a non-expressing cell line were plated onto flat bottom 96-well tissue culture plates (Becton Dickinson, Franklin Lakes, N.J., USA) at a density of 3000 cells per well. Once the cells reached ˜25% confluency, 100 ng/well of secondary antibody-toxin conjugate (goat anti-human IgG-saporin; Advanced Targeting Systems, San Diego, USA, HUM-ZAP; cat. # IT-22) was added. Anti-GPNMB MAbs 2.10.2, 2.22.1, 1.15.1 or isotype control mAb (pK16.3) were added to each well at a final concentration of 10 or 50 ng/mL. An anti-EGFR monoclonal antibody (MS-269-PABX, NeoMarkers, Fremont, Calif., USA) was used as a positive primary antibody control. Chemotherapy reagent 5-FU at 600 uM was used as a positive reagent control. On day 5, the cells were trypsinized, transferred to 6-well tissue culture plates and incubated at 37° C. Plates were examined daily and between 8-10 days, all plates were Giemsa stained and colonies were counted.

[6] = system: SK-MEL-5 melanoma xenografts; assay: Human SK-MEL-5 melanoma xenograft in athymic mice; assay type: in vivo
Experimental: as §1, §2, §3, §4
Soon after the commencement of treatment with paclitaxel, however, significant tumor growth inhibition was observed (P≦0.039) at day 3 after treatment began, and this anti-tumor effect continued, producing 100% growth inhibition (stasis). The responses of SK-MEL-5-bearing test animals to vinblastine and paclitaxel were short-lived. After cessation of treatment at the maximally tolerated doses, tumors resumed rapid, progressive growth.

Molecule: CC[C@H](C)[C@@H]([C@@H](CC(=O)N1CCC[C@H]1[C@H](OC)[C@@H](C)C(=O)N[C@H](C)[C@@H](O)c1ccccc1)OC)N(C)C(=O)[C@@H](NC(=O)[C@@H](NC)C(C)C)C(C)C [free monomethylauristatin E, monomethylauristatin E, reference compound] (H-[NMeV]V[Dil][Dolaproine]-X1)
tumor response ([1]; CR011-ONC-1, CR011-vcMMAE 5 mg/kg/treatment i.v. q4d x4, components at doses identical to those in the immunoconjugate): lack of responses; also recorded: lack of tumor growth inhibition

Molecule: CR011 IgG1: CR011 mAb 1.15.1 switched to IgG1 constant region; heavy chain SEQ ID NO: 395
FACS shifts compared to isotype control mAbs [2]: comparable FACS shifts | ADCC / cytolysis of SK-MEL-2 cells [3]: mediated ADCC; also recorded: caused cytolysis of SK-MEL-2 cells in a dose dependent manner

bin ([4]; bin assignment of Table 8): VIII | bin ([4]; bin assignment of Table 9, Cut-off = 90): VIII | binning signal (Table 8) ([4]; paired with 1.1): 91 | binning signal (Table 8) ([4]; paired with 1.11): 10 | binning signal (Table 9) ([4]; paired with 1.11): 19 | binning signal (Table 8) ([4]; paired with 1.12): 15 | binning signal (Table 9) ([4]; paired with 1.12): 21 | binning signal (Table 8) ([4]; paired with 1.13): 13 | binning signal (Table 9) ([4]; paired with 1.13): 5 | binning signal (Table 8) ([4]; paired with 1.15): 0 | binning signal (Table 9) ([4]; paired with 1.15): 0 | binning signal (Table 8) ([4]; paired with 1.2): 79 | binning signal (Table 9) ([4]; paired with 1.2): 90 | binning signal (Table 8) ([4]; paired with 1.3): 71 | binning signal (Table 9) ([4]; paired with 1.3): 51 | binning signal (Table 8) ([4]; paired with 1.5): 15 | binning signal (Table 9) ([4]; paired with 1.5): −9 | binning signal (Table 8) ([4]; paired with 1.7): 21 | binning signal (Table 9) ([4]; paired with 1.7): 17 | binning signal (Table 8) ([4]; paired with 1.8): 8 | binning signal (Table 9) ([4]; paired with 1.8): 12 | binning signal (Table 8) ([4]; paired with 1.9): 12 | binning signal (Table 9) ([4]; paired with 1.9): 19 | binning signal (Table 8) ([4]; paired with BB): −19 | binning signal (Table 9) ([4]; paired with BB): 59 | binning signal (Table 8) ([4]; paired with xV5): 89
Molecule: 1.15: anti-GPNMB antibody 1.15 of the binning tables; line of the lead mAb 1.15 / CR011

Molecule: O=c1[nH]cc(F)c(=O)[nH]1 [Mab 5-FU, 5-FU]
killing of cells [5]: complete killing

Molecule: CC(=O)O[C@H]1C(=O)[C@@]2(C)[C@H]([C@H](OC(=O)c3ccccc3)[C@]3(O)C[C@H](OC(=O)[C@H](O)[C@@H](NC(=O)c4ccccc4)c4ccccc4)C(C)=C1C3(C)C)[C@]1(OC(C)=O)CO[C@@H]1C[C@@H]2O [paclitaxel, reference compound]
long-term, tumor-free survivors ([6]; paclitaxel group): One long-term, tumor-free survivor

Molecule: CC[C@]1(O)C[C@@H]2CN(CCc3c([nH]c4ccccc34)[C@@](C(=O)OC)(c3cc4c(cc3OC)N(C)[C@H]3[C@@](O)(C(=O)OC)[C@H](OC(C)=O)[C@]5(CC)C=CCN6CC[C@]43[C@@H]65)C2)C1 [vinblastine, vinblastine sulfate, reference compound]
anti-tumor effect ([1]; Study N-386, i.v., CR011-vcMMAE 20, 10, 5 or 2.5 mg/kg q4d x4, vinblastine […] q4d x4): very slight, but not significant, anti-tumor effect | anti-tumor effect ([6]; CR011-ONC-3, i.v., vs saline and PBS control groups): noticeable, but not significant tumor growth inhibition
